Results published in PMC3400562, “Structure-guided Alterations of the gp41-directed HIV-1 Broadly Neutralizing Antibody 2F5 Reveal New Properties Regarding its Neutralizing Function” (PLoS Pathogens, 2012).

B1: 2F5 CDRH3 length-altered variant r2 (antibody, V domains shown)
VH: RITLKESGPPLVKPTQTLTLTCSFSGFSLSDFGVGVGWIRQPPGKALEWLAIIYSDDDKRYSPSLNTRLTITKDTSKNQVVLVMTRVSPVDTATYFCAHRRGPTLFGVIARGPVNAMDVWGQGITVTISS
VL: ALQLTQSPSSLSASVGDRITITCRASQGVTSALAWYRQKPGSPPQLLIYDASSLESGVPSRFSGSGSGTEFTLTISTLRPEDFATYYCQQLHFYPHTFGGGTRVDVR
B2: wt 2F5 antibody (antibody, V domains shown)
VH: RITLKESGPPLVKPTQTLTLTCSFSGFSLSDFGVGVGWIRQPPGKALEWLAIIYSDDDKRYSPSLNTRLTITKDTSKNQVVLVMTRVSPVDTATYFCAHRRGPTTLFGVPIARGPVNAMDVWGQGITVTISS
VL: B1 VL
notes: also called 2F5 Mab; Mab 2F5
B3: 2F5 CDRH3 length-altered variant r4 (antibody, V domains shown)
VH: RITLKESGPPLVKPTQTLTLTCSFSGFSLSDFGVGVGWIRQPPGKALEWLAIIYSDDDKRYSPSLNTRLTITKDTSKNQVVLVMTRVSPVDTATYFCAHRRGPLFGVARGPVNAMDVWGQGITVTISS
VL: B1 VL
B4: 2F5 CDRH3 length-altered variant r6 (antibody, V domains shown)
VH: RITLKESGPPLVKPTQTLTLTCSFSGFSLSDFGVGVGWIRQPPGKALEWLAIIYSDDDKRYSPSLNTRLTITKDTSKNQVVLVMTRVSPVDTATYFCAHRRGLFGVRGPVNAMDVWGQGITVTISS
VL: B1 VL
B5: 2F5 CDRH3 length-altered variant e2 (antibody, V domains shown)
VH: RITLKESGPPLVKPTQTLTLTCSFSGFSLSDFGVGVGWIRQPPGKALEWLAIIYSDDDKRYSPSLNTRLTITKDTSKNQVVLVMTRVSPVDTATYFCAHRRGPTTGLFGVGPIARGPVNAMDVWGQGITVTISS
VL: B1 VL
B6: 2F5 CDRH3 length-altered variant e4 (antibody, V domains shown)
VH: RITLKESGPPLVKPTQTLTLTCSFSGFSLSDFGVGVGWIRQPPGKALEWLAIIYSDDDKRYSPSLNTRLTITKDTSKNQVVLVMTRVSPVDTATYFCAHRRGPTTGGLFGVGGPIARGPVNAMDVWGQGITVTISS
VL: B1 VL

What was measured:
[1] = target: T1, wt MPER peptide (HIV-1, strain  (synthetic …)); experiment: BLI; Octet Red; Mabs captured on anti-human IgG Fc biosensors (10 µg/mL), peptides or ES2 as analyte in solution, two-fold dilutions 500 nM to 7.81 nM, PBS pH 7.4, 0.2% Tween 20, 60 s association and 60 s dissociation, no lipid; Langmuir 1:1 fit; also used for the alanine-substituted MPER peptides; conditions: both partners purified
T1 construct: source: synthetic peptide (Genscript)

[2] = target: T2, linked peptide (HIV-1, strain  (synthetic …)); experiment: as above; conditions: both partners purified
T2 construct: source: synthetic peptide (Genscript)

[3] = target: T1, wt MPER peptide; experiment: cell-based or functional assay
[4] = target: T1, wt MPER peptide; experiment: BLI; conditions: both partners purified
[5] = target: T2, linked peptide; experiment: BLI; conditions: both partners purified

| Binder | Kd [1] [nM] | koff [1] [s⁻¹] | kon [1] [M⁻¹ s⁻¹] | Kd [2] [nM] | koff [2] [s⁻¹] | kon [2] [M⁻¹ s⁻¹] | IC50 of neutralisation of JR-CSF Env-pseudotyped HIV-1, single-cycle infectivity assay on TZM-bl cells [3] [µg/mL] | IC50 of neutralisation of JR-FL Env-pseudotyped HIV-1, single-cycle infectivity assay on TZM-bl cells [3] [µg/mL] | Kd [4] [nM] | koff [4] [s⁻¹] | kon [4] [M⁻¹ s⁻¹] | Kd [5] [nM] | koff [5] [s⁻¹] | kon [5] [M⁻¹ s⁻¹] |
| --- | --- | --- | --- | --- | --- | --- | --- | --- | --- | --- | --- | --- | --- | --- |
| B1 | 90.2 | 0.0051 | 50000 | 55.8 | 0.0085 | 150000 | 98 | 111 | – | – | – | – | – | – |
| B2 | – | – | – | – | – | – | – | – | 3.1 | 0.0007 | 230000 | 2.2 | 0.0007 | 360000 |
| B3 | 382 | 0.0081 | 20000 | 96.8 | 0.0105 | 100000 | – | – | – | – | – | – | – | – |
| B4 | 390 | 0.0189 | 40000 | 125 | 0.0237 | 180000 | – | – | – | – | – | – | – | – |
| B5 | 463 | 0.0087 | 10000 | 26.9 | 0.0035 | 130000 | – | – | – | – | – | – | – | – |
| B6 | 239 | 0.0101 | 40000 | 78.6 | 0.0104 | 130000 | – | – | – | – | – | – | – | – |
